Eight molecules from US20240261333A1, “NOVEL TARGETS FOR ENHANCING ANTI-TUMOR IMMUNITY” (THE BROAD INSTITUTE, INC., priority 2021, published 2024) can be followed below.

The target of this experiment is T1, B3GNT2 (Homo sapiens, UniProt Q9NY97).
T1 construct: The respective ORFs of candidate genes [CD274 (NM_014143), MCL1 (NM_021960), JUNB (NM_002229), and B3GNT2 (NM_006577)] were synthesized; expressed in transfected cells; host or cells: A375 melanoma cells (lentiviral ORF overexpression)
T1 sequence (Q9NY97 1-397): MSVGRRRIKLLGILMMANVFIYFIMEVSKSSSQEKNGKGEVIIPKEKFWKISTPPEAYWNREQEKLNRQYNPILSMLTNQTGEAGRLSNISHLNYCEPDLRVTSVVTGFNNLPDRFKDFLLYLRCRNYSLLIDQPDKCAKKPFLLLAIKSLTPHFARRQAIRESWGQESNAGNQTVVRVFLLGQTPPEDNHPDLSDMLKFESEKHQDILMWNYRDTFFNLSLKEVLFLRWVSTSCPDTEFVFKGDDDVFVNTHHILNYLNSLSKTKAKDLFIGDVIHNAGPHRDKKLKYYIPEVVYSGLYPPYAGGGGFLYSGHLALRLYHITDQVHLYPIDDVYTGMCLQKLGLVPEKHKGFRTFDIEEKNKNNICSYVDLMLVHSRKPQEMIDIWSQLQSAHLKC
The experiment in a line: Co-IP of FLAG-tagged B3GNT2 followed by mass spectrometry. Set-up: C-term IgG / C-term flag: unit not given here. The conditions noted are these: mass spectrometry count, unit not given; for C-term flag / N-term FLAG: Co-IP with FLAG antibody; for C-term flag / C-term IgG: C-terminally FLAG-tagged B3GNT2; for N-term FLAG / N-term IgG: N-terminally FLAG-tagged B3GNT2; for C-term IgG / N-term IgG: Co-IP with IgG control antibody. Format: cell-based. In outline:
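Co-purifying proteins were identified by fractionated nano-LC–MS/MS on an Orbitrap Elite, run data-dependent. Beforehand, lysates in 1% Triton X-100/HEPES buffer were incubated overnight at 4° C with anti-FLAG or […] and pulled down on Protein A/G magnetic beads for 4 h. Duplicate biological replicates.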

B1: ATAD3A (protein)
chain: SWLFGINKGPKGEGAGPPPPLPPAQPGAEGGGDRGLGDRPAPKDKWSNFDPTGLERAAKAARELEHSRYAKDALNLAQMQEQTLQLEQQSKLKEYEAAVEQLKSEQIRAQAEERRKTLSEETRQHQARAQYQDKLARQRYEDQLKQQQLLNEENLRKQEESVQKQEAMRRATVEREMELRHKNEMLRVEAEARARAKAERENADIIREQIRLKAAEHRQTVLESIRTAGTLFGEGFRAFVTDWDKVTATVAGLTLLAVGVYSAKNATLVAGRFIEARLGKPSLVRETSRITVLEALRHPIQVSRRLLSRPQDALEGVVLSPSLEARVRDIAIATRNTKKNRSLYRNILMYGPPGTGKTLFAKKLALHSGMDYAIMTGGDVAPMGREGVTAMHKLFDWANTSRRGLLLFVDEADAFLRKRATEKISEDLRATLNAFLYRTGQHSNKFMLVLASNQPEQFDWAINDRINEMVHFDLPGQEERERLVRMYFDKYVLKPATEGKQRLKLAQFDYGRKCSEVARLTEGMSGREIAQLAVSWQATAYASEDGVLTEAMMDTRVQDAVQQHQQKMCWLKAEGPGRGDEPSPS
Take B1: the C-term flag turned out to be 9, the “N-term FLAG” value worked out at 0, the “C-term IgG” value is 0 and the “N-term IgG” value came out at 0.

B2: DNAJA3 (protein)
chain: GVSLTGTKHNPFICTASFHTSAPLAKEDYYQILGVPRNASQKEIKKAYYQLAKKYHPDTNKDDPKAKEKFSQLAEAYEVLSDEVKRKQYDAYGSAGFDPGASGSQHSYWKGGPTVDPEELFRKIFGEFSSSSFGDFQTVFDQPQEYFMELTFNQAAKGVNKEFTVNIMDTCERCNGKGNEPGTKVQHCHYCGGSGMETINTGPFVMRSTCRRCGGRGSIIISPCVVCRGAGQAKQKKRVMIPVPAGVEDGQTVRMPVGKREIFITFRVQKSPVFRRDGADIHSDLFISIAQALLGGTARAQGLYETINVTIPPGTQTDQKIRMGGKGIPRINSYGYGDHYIHIKIRVPKRLTSRQQSLILSYAEDETDVEGTVNGVTLTSSGKRSTGN
Turning to B2, the C-term flag is 2, the “N-term FLAG” value is listed as 0, the “C-term IgG” value came out at 0 and the “N-term IgG” value is 0.

B3: PDIA4 (protein)
chain: VAGAEGPDEDSSNRENAIEDEEEEEEEDDDEEEDDLEVKEENGVLVLNDANFDNFVADKDTVLLEFYAPWCGHCKQFAPEYEKIANILKDKDPPIPVAKIDATSASVLASRFDVSGYPTIKILKKGQAVDYEGSRTQEEIVAKVREVSQPDWTPPPEVTLVLTKENFDEVVNDADIILVEFYAPWCGHCKKLAPEYEKAAKELSKRSPPIPLAKVDATAETDLAKRFDVSGYPTLKIFRKGRPYDYNGPREKYGIVDYMIEQSGPPSKEILTLKQVQEFLKDGDDVIIIGVFKGESDPAYQQYQDAANNLREDYKFHHTFSTEIAKFLKVSQGQLVVMQPEKFQSKYEPRSHMMDVQGSTQDSAIKDFVLKYALPLVGHRKVSNDAKRYTRRPLVVVYYSVDFSFDYRAATQFWRSKVLEVAKDFPEYTFAIADEEDYAGEVKDLGLSESGEDVNAAILDESGKKFAMEPEEFDSDTLREFVTAFKKGKLKPVIKSQPVPKNNKGPVKVVVGKTFDSIVMDPKKDVLIEFYAPWCGHCKQLEPVYNSLAKKYKGQKGLVIAKMDATANDVPSDRYKVEGFPTIYFAPSGDKKNPVKFEGGDRDLEHLSKFIEEHATKLSRTKEEL
B3: the C-term flag stood at 9, the “N-term FLAG” value turned out to be 0, the “C-term IgG” value is listed as 0 and the “N-term IgG” value is 0.

B4: IFI16 (protein)
chain: MGKKYKNIVLLKGLEVINDYHFRMVKSLLSNDLKLNLKMREEYDKIQIADLMEEKFRGDAGLGKLIKIFEDIPTLEDLAETLKKEKLKVKGPALSRKRKKEVDATSPAPSTSSTVKTEGAEATPGAQKRKKSTKEKAGPKGSKVSEEQTQPPSPAGAGMSTAMGRSPSPKTSLSAPPNSSSTENPKTVAKCQVTPRRNVLQKRPVIVKVLSTTKPFEYETPEMEKKIMFHATVATQTQFFHVKVLNTSLKEKFNGKKIIIISDYLEYDSLLEVNEESTVSEAGPNQTFEVPNKIINRAKETLKIDILHKQASGNIVYGVFMLHKKTVNQKTTIYEIQDDRGKMDVVGTGQCHNIPCEEGDKLQLFCFRLRKKNQMSKLISEMHSFIQIKKKTNPRNNDPKSMKLPQEQRQLPYPSEASTTFPESHLRTPQMPPTTPSSSFFTKKSEDTISKMNDFMRMQILKEGSHFPGPFMTSIGPAESHPHTPQMPPSTPSSSFLTTLKPRLKTEPEEVSIEDSAQSDLKEVMVLNATESFVYEPKEQKKMFHATVATENEVFRVKVFNIDLKEKFTPKKIIAIANYVCRNGFLEVYPFTLVADVNADRNMEIPKGLIRSASVTPKINQLCSQTKGSFVNGVFEVHKKNVRGEFTYYEIQDNTGKMEVVVHGRLTTINCEEGDKLKLTCFELAPKSGNTGELRSVIHSHIKVIKTRKNKKDILNPDSSMETSPDFFF
Regarding B4, the C-term flag is 2, the “N-term FLAG” value came out at 0, the “C-term IgG” value is reported as 0 and the “N-term IgG” value is on record as 0.

B5: RCN1 (protein)
chain: KPTVRKERVVRPDSELGERPPEDNQSFQYDHEAFLGKEDSKTFDQLTPDESKERLGKIVDRIDNDGDGFVTTEELKTWIKRVQKRYIFDNVAKVWKDYDRDKDDKISWEEYKQATYGYYLGNPAEFHDSSDHHTFKKMLPRDERRFKAADLNGDLTATREEFTAFLHPEEFEHMKEIVVLETLEDIDKNGDGFVDQDEYIADMFSHEENGPEPDWVLSEREQFNEFRDLNKDGKLDKDEIRHWILPQDYDHAQAEARHLVYESDKNKDEKLTKEEILENWNMFVGSQATNYGEDLTKNHDEL
For B5, the C-term flag came to 9, the “N-term FLAG” value came out at 0, the “C-term IgG” value is 0 and the “N-term IgG” value is 0.

B6: PGAM5 (protein)
chain: MAFRQALQLAACGLAGGSAAVLFSAVAVGKPRAGGDAEPRPAEPPAWAGGARPGPGVWDPNWDRREPLSLINVRKRNVESGEEELASKLDHYKAKATRHIFLIRHSQYHVDGSLEKDRTLTPLGREQAELTGLRLASLGLKFNKIVHSSMTRAIETTDIISRHLPGVCKVSTDLLREGAPIEPDPPVSHWKPEAVQYYEDGARIEAAFRNYIHRADARQEEDSYEIFICHANVIRYIVCRALQFPPEGWLRLSLNNGSITHLVIRPNGRVALRTLGDTGFMPPDKITRS
Consider B6, for which the C-term flag amounted to 5, the “N-term FLAG” value came to 4, the “C-term IgG” value came to 0 and the “N-term IgG” value was 0.

B7: PSMC2 (protein)
chain: PDYLGADQRKTKEDEKDDKPIRALDEGDIALLKTYGQSTYSRQIKQVEDDIQQLLKKINELTGIKESDTGLAPPALWDLAADKQTLQSEQPLQVARCTKIINADSEDPKYIINVKQFAKFVVDLSDQVAPTDIEEGMRVGVDRNKYQIHIPLPPKIDPTVTMMQVEEKPDVTYSDVGGCKEQIEKLREVVETPLLHPERFVNLGIEPPKGVLLFGPPGTGKTLCARAVANRTDACFIRVIGSELVQKYVGEGARMVRELFEMARTKKACLIFFDEIDAIGGARFDDGAGGDNEVQRTMLELINQLDGFDPRGNIKVLMATNRPDTLDPALMRPGRLDRKIEFSLPDLEGRTHIFKIHARSMSVERDIRFELLARLCPNSTGAEIRSVCTEAGMFAIRARRKIATEKDFLEAVNKVIKSYAKFSATPRYMTYN
With B7, the C-term flag is 0, the “N-term FLAG” value stood at 2, the “C-term IgG” value is recorded as 0 and the “N-term IgG” value came out at 0.

B8: UBTF (protein)
chain: MNGEADCPTDLEMAAPKGQDRWSQEDMLTLLECMKNNLPSNDSSKFKTTESHMDWEKVAFKDFSGDMCKLKWVEISNEVRKFRTLTELILDAQEHVKNPYKGKKLKKHPDFPKKPLTPYFRFFMEKRAKYAKLHPEMSNLDLTKILSKKYKELPEKKKMKYIQDFQREKQEFERNLARFREDHPDLIQNAKKSDIPEKPKTPQQLWYTHEKKVYLKVRPDEIMRDYIQKHPELNISEEGITKSTLTKAERQLKDKFDGRPTKPPPNSYSLYCAELMANMKDVPSTERMVLCSQQWKLLSQKEKDAYHKKCDQKKKDYEVELLRFLESLPEEEQQRVLGEEKMLNINKKQATSPASKKPAQEGGKGGSEKPKRPVSAMFIFSEEKRRQLQEERPELSESELTRLLARMWNDLSEKKKAKYKAREAALKAQSERKPGGEREERGKLPESPKRAEEIWQQSVIGDYLARFKNDRVKALKAMEMTWNNMEKKEKLMWIKKAAEDQKRYERELSEMRAPPAATNSSKKMKFQGEPKKPPMNGYQKFSQELLSNGELNHLPLKERMVEIGSRWQRISQSQKEHYKKLAEEQQKQYKVHLDLWVKSLSPQDRAAYKEYISNKRKSMTKLRGPNPKSSRTTLQSKSESEEDDEEDEDDEDEDEEEEDDENGDSSEDGGDSSESSSEDESEDGDENEEDDEDEDDDEDDDEDEDNESEGSSSSSSSSGDSSDSDSN
Consider B8, for which the C-term flag worked out at 2, the “N-term FLAG” value came out at 0, the “C-term IgG” value stood at 0 and the “N-term IgG” value worked out at 0.
